Data taken from paper PMC9164447.

Biological target: SARS-CoV-2 nucleocapsid N protein wild type (SARS-CoV-2) (UniProt P0DTC9)
Test: fluorescence anisotropy

Sequence NNNNNNNNNN [10-nt degenerate RNA] has a Kd of 28 nM.
